Data as given in paper PMC4612562, “Coronin 2A (CRN5) expression is associated with colorectal adenoma-adenocarcinoma sequence and oncogenic signalling” (BMC Cancer, 2015).

Target: T1, His6-PRMT5 (UniProt O14744 1-637)
T1 construct: PRMT5, cDNA AF167572.1 in pReceiver-B01 (GeneCopoeia EX-V1247-B01); also called protein arginine N-methyltransferase 5; source: E. coli BL21, purified (Ni-beads)
Test: pull-down; GST-CRN5 on glutathione-sepharose beads as bait; TEV-cleaved MAPK14 or purified His6-PRMT5 as prey; 50 mM Tris/HCl pH 8.0, 150 mM NaCl, 0.5 % NP-40; three washes; SDS-PAGE and immunoblot
Conditions: both partners purified

T1 sequence (O14744 whole entry): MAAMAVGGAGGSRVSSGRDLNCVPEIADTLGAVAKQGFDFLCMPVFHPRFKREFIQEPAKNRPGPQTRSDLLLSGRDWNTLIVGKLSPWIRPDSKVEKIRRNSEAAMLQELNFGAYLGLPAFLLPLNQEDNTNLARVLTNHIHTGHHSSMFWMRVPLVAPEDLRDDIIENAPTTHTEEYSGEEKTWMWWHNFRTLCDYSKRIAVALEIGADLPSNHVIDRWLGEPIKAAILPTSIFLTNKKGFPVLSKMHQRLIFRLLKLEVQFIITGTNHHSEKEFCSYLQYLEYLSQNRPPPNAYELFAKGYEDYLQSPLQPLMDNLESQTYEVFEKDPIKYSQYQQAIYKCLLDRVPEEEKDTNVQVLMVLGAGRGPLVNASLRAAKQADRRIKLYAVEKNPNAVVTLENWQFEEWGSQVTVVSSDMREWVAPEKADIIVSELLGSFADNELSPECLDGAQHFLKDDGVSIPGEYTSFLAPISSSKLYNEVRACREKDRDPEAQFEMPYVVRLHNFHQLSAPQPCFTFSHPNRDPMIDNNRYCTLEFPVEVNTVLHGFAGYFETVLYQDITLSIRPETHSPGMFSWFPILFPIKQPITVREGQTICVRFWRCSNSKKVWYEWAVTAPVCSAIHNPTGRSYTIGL

B1: GST-CRN5 (coronin 2A) (natural protein, human, UniProt Q92828 1-525, looked up)
chain: MSWHPQYRSSKFRHVFGKPASKENCYDSVPITRSVHDNHFCAVNPHFIAVVTECAGGGAFLVIPLHQTGKLDPHYPKVCGHRGNVLDVKWNPFDDFEIASCSEDATIKIWSIPKQLLTRNLTAYRKELVGHARRVGLVEWHPTAANILFSAGYDYKVMIWNLDTKESVITSPMSTISCHQDVILSMSFNTNGSLLATTCKDRKIRVIDPRAGTVLQEASYKGHRASKVLFLGNLKKLMSTGTSRWNNRQVALWDQDNLSVPLMEEDLDGSSGVLFPFYDADTSMLYVVGKGDGNIRYYEVSADKPHLSYLTEYRSYNPQKGIGVMPKRGLDVSSCEIFRFYKLITTKSLIEPISMIVPRRSESYQEDIYPPTAGAQPSLTAQEWLSGMNRDPILVSLRPGSELLRPHPLPAERPIFNSMAPASPRLLNQTEKLAAEDGWRSSSLLEEKMPRWAAEHRLEEKKTWLTNGFDVFECPPPKTENELLQMFYRQQEEIRRLRELLTQREVQAKQLELEIKNLRMGSEQL
notes: coronin 2A (CRN5), human cDNA NM_052820 (origene SC109892) cloned into pGEX-4T-1; pGEX-4T-1 normally places GST at the N-terminus (surmised); also called coronin 4; ClipinB; source: E. coli BL21, purified on glutathione beads (pull-down); E. coli lysate captured on CRN5 mAb K77-578-1 / Protein G microbeads (co-immunoprecipitation)
- binding result: binds
